B1: Azoarcus group I ribozyme (parent)
chain: GUGCCUUGCGCCGGGAAACCACGCAAGGGAUGGUGUCAAAUUCGGCGAAACCUAAGCGCCCGCCCGGGCGUAUGGCAACGCCGAGCCAAGCUUCGGCGCCUGCGCCGAUGAAGGUGUAGAGACUAGACGGCACCCACCUAAGGCAAACGCUAUGGUGAAGGCAUAGUCCAGGGAGUGGCGAAAGUCACACAAACCGG

The variants in the data set derive from B1. Kind of data set: reverse-splicing fitness (ratio to wild type); higher = more active; in vitro selection; Mg2+ level not given. In short, it runs like this: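 An in vitro group I ribozyme library with randomized positions was T7-transcribed and gel-purified. In triplicate, 10 pmol RNA in EPPS pH 7.5 was reacted with 50 pmoles of a 30-nt RNA substrate for 1 h at 37 °C across several added MgCl2 levels (1–48 mM), then stopped with EDTA. Products were reverse transcribed from a substrate-complementary primer, PCR-amplified and sequenced (HiSeq 4000). Fitness is a variant's read proportion after selection over that before, normalised to wild type.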
For A111U A145G C150G, the reverse-splicing fitness was 0.359.
In the case of A111U A145C C169G U176A, the reverse-splicing fitness was 0.0286.
The figure for A111U A145C C169G U176G is 0.00585; for A111U A145C C169G U176C it is 0.0232.
The value for A111U A145U C150G C169G U176A was 0.00711; that for A111U A145U C150G C169G U176C was 0.00535; that for A111U A145U C150G C169G U176G was 0.00534.
The value for A111U A120U C150A C169A U176A was 0.00475.
With A111U A120U C150A C169A U176G, the reverse-splicing fitness turned out to be 0.00251.
The figure for A111U A120U C150A C169A U176C is 0.00348; for A111U C150U C169A U176A it is 0.015; for A111U C150U C169A U176C it is 0.0138.
The value for A111U C150U C169A U176G was 0.00669; that for A111U A145G C150G U176G was 0.0223; that for A111U A145G C150G U176C was 0.171.
For A111U A145G C150G U176A, the reverse-splicing fitness is 0.0997.
With A111U A145C C150A C169A, the reverse-splicing fitness was determined as 0.00817.
The figure for A111U A145C C150A C169G is 0.00935.
On to A111U A145C C150A C169U, for which the reverse-splicing fitness amounted to 0.0131.
The figure for A111U A145G C150A C169G U176G is 0.00603; for A111U A145G C150A C169G U176A it is 0.0163; for A111U A145G C150A C169G U176C it is 0.0292.
For A111U A145U C169G U176G, the reverse-splicing fitness stood at 0.00562.
With A111U A145U C169G U176A, the reverse-splicing fitness was determined as 0.016.
The value for A111U A145U C169G U176C was 0.0214.
The figure for A111U C150U C169U is 0.0631; for A111U C150U C169G it is 0.0372; for A111U C150U C169A it is 0.02.
The figure for A111U A120U C150U C169A U176G is 0.00214.
With A111U A120U C150U C169A U176C, the reverse-splicing fitness was 0.00279.
The figure for A111U A120U C150U C169A U176A is 0.00464; for A111U A145C C150G C169A U176A it is 0.0076; for A111U A145C C150G C169A U176G it is 0.00612.
Take A111U A145C C150G C169A U176C: the reverse-splicing fitness turned out to be 0.00643.
The value for A111U A145C C150U U176C was 0.436; that for A111U A145C C150U U176A was 0.399.
The figure for A111U A145C C150U U176G is 0.189; for A111U C169U U176G it is 0.00752.
Regarding A111U C169U U176C, the reverse-splicing fitness came out at 0.0365.
Regarding A111U C169U U176A, the reverse-splicing fitness was found to be 0.0279.
A111U A120U C150G U176G: the reverse-splicing fitness turned out to be 0.00286.
The value for A111U A120U C150G U176A was 0.00718.
As to A111U A120U C150G U176C, the reverse-splicing fitness amounted to 0.0189.
The value for A111U A145G C150U C169A U176A was 0.0155; that for A111U A145G C150U C169A U176G was 0.00732.
Turning to A111U A145G C150U C169A U176C, the reverse-splicing fitness was determined as 0.017.
The figure for A111U A145U U176G is 0.364; for A111U A145U U176A it is 0.747; for A111U A145U U176C it is 0.767.
The figure for A120C A145C is 0.783.
As for A111U A145U C150G C169U U176A, the reverse-splicing fitness was 0.00897.
The value for A111U A145U C150G C169U U176G was 0.00601; that for A111U A145U C150G C169U U176C was 0.0129.
The figure for A111U A145C C150G U176G is 0.0277.
The figure for A111U A145C C150G U176C is 0.218; for A111U A145C C150G U176A it is 0.153; for A111U A145G C169U U176C it is 0.0327.
As for A111U A145G C169U U176G, the reverse-splicing fitness came out at 0.00581.
Take A111U A145G C169U U176A: the reverse-splicing fitness amounted to 0.0265.
The value for A111U A145C C150A was 0.23; that for A111U A145C C150U was 0.661.
The figure for A111U A145C C150G is 0.426.
As to A111U A120U C150G C169U, the reverse-splicing fitness came out at 0.00855.
The value for A111U A120U C150G C169G was 0.00802; that for A111U A120U C150G C169A was 0.00749; that for A111U A145C C150G C169G U176C was 0.00846.
The figure for A111U A145C C150G C169G U176A is 0.00774; for A111U A145C C150G C169G U176G it is 0.00549.
On to A111U A120U C169G U176A, for which the reverse-splicing fitness was determined as 0.00625.
The value for A111U A120U C169G U176G was 0.00197.
The value for A111U A120U C169G U176C was 0.00937; that for A111U A120U U176C was 0.296.
On to A111U A120U U176G, for which the reverse-splicing fitness turned out to be 0.0683.
The value for A111U A120U U176A was 0.239; that for A111U A145U C150G U176G was 0.025; that for A111U A145U C150G U176C was 0.193.
The figure for A111U A145U C150G U176A is 0.138.
In the case of A111U A145G C150U C169G U176G, the reverse-splicing fitness was 0.00671.
The value for A111U A145G C150U C169G U176A was 0.0164.
The value for A111U A145G C150U C169G U176C was 0.0269.
The figure for A111U A145C C150G C169A is 0.00988; for A111U A145C C150G C169G it is 0.0108.
On to A111U A145C C150G C169U, for which the reverse-splicing fitness was 0.0175.

The record behind these values is the RNAGym collection of RNA variant scans (doi:10.1093/molbev/msab373).
